assay: soluble on expression in E. coli; label from the status in PepcDB or PDB records

Sequence	soluble on expression in E. coli
METPKGTIIFTTVGRTHYGFDVFSLNIATSVERRLTDGVSVNFNAQFVNDKSDDVVFVSERNGSARIYKTRSGISKPEQIPGAPESYFHDRPIITQNNRLYFISAHEQPDRYFKNWSALYTVELNSAKREVTRVTPPDTADFSPAVSQSGDFLAVASYGTRSWGGEFHEINTDITVFKASKPETRVVICERGGWPTWSGDSTVFFHHQADDGWWSIFRVDIPENFTEYTDFPITPIRVTPSGLHCFTPAAFRDGKRIALATRRRGVNHRHIEIYDLENTTFQPVTESLNPSFHHYNPFVSPDSEFLGYHRFRGESTQGESIVPNIESIVSPIKTLRLLRINGSFPSSSPNGDLIALNSDFDINGGIKVSKSDGSKRWTLIKDRTAFYNSWSPTERHVIYTSLGPIFSPARIAVQIARIKFDPSDLTADKEDLPCDVKILTLENTGNNAFPSCSPDGKSIVFRSGRSGHKNLYIVDAVNGESNGGGIRRLTDGPWIDTMPCWSPKGDLIGFSSNRHNPENTAVFGAYVVRPDGTGLRRIQISGPEGSEEAARERVNHVSFNKDGDWLVFAANLSGVTAEPVTMPNQFQPYGDLYVVKLDGTGLRRLTWNGYEDGTPTWHTADELDLSQLNLNGQDGDKLEGQFEEPLWISCDI	soluble
MEKKFPTVVTIGGRRYVKNNLNRKSEDCKMKLKEALKSFGRRVQKLQMSHCTIEKGTSLHVYKLDDARVIFTKKNKPIGFVVTGKAEEIDKSVYEKASSEINDATGKPNEPGAEERAEKDDASLID	not soluble
MENGIGYIPLLNVSHKHGGTHFYRKNSGTCDLCEKNFKTSEELVEHKKNYPRADVEKALSVYKEKDTIYKCLQCSGEFRLKEDFDYHQELHKRLGELKSASSNKSEANKDDESDIDSSFEIIEN	not soluble
PPPAPIPDLKVFEREGVQLNLSFIRPPENPALLLITITATNFSEGDVTHFICQAAVPKSLQLQLQAPSGNTVPARGGLPITQLFRILNPNKAPLRLKLRLTYDHFHQSVQEIFEVNNLPVESWQ	soluble
MNDKIQKLIKKLAKECQKEDVALSLAAIDLEGEMAISQVGKGTIVAIAAHSQYTLTKEKLEQSDCDCPKHRLLKEMYGTETETTTKNTHTFVTDDPNDLMDILSKIFRGEFK	not soluble
MGSDKIHHHHHHMVSRYLEHLEHTFSTRLFQRNTRKISLTPAGEKALLYCENILQQQQLLQELAAPEQHNGTIRFTCGLFLFELGVAECIRQFKRQHPHIQFDVYLTESTMDLIDAQVDLALRITQKVADGLIARPVCQIESVFCAHPDYLKQHSPLLHPRQLIQHECIAHHSQHQFWTLFDNEQQPQNYPLNVTFKSNDVNALYDMCLHAQGVAMLPTLLVEKDLKEKRLKALFKNFTAPELSLSVVYASRQHLPRITQEFIAFMIENLDFYLKPQN	not soluble
MSLKVVKFGGSSLASASQLEKVLNIVKSDSERRFVVVSAPGKRNAEDTKVTDALIKYYRDYVAGNDISKNQSWIIDRYAAMVSELGLKPAVLEKISKSIHALATLPIEENEFLYDTFLAAGENNNAKLIAAYFNQNGIDARYMHPREAGIVVTSEPGHARIIPSSYDKIEELTNTNEVLVIPGFFGVTKENQICTFSRGGSDITGSIIAAGVKADLYENFTDVDGIFAAHPGIIHQPHSIPELTYREMRELAYAGFSVLHDEALLPAYRGKIPLVIKNTNNPDHPGTRIVLKHSNDEFPVVGIAGDSGFVSINMSKYLMNREVGFGRKVLQILEELNIGWEHMPTGIDDLSIILRSRQLTPIKEEEILRQLVQKAKVDHAEIEHDLSIIMIVGEKMKSHIGVTATATRALSENKINIQMMSQGSSEVSIMFVVNKDQEKAAIKALYNAFFGESKEDEGHHHHHH	soluble
MCLLTFAYQTNKRFPFVFAANRDEYYDRPTLFAHEWKEDPNVIGGRDLKKGGTWLGFTKEGKIAALTNVRDSFKHSGIPFQSRGFIVQDYLTSNTSAQLFMERLIQTADEFDGYNLVFGSYHDLYYYTNRMEKGEKLKPGYYMLSNGQMNSHWPKAVKVRTHLQSVLEREQDIETIIKKLLAIMQDEERFPDEQLPDTGVGIEWERILSPIFINGKTYGTRATTVIICTDEGESFFLEWNYGPMGIFLEKREFHIQLPSSYLNMKKDYELEHHHHHH	not soluble
TKNWSWTASANAAWQKVRIKNLTLTPGAPSPDTEVGPWIDAYQMQVFSTDYAPYSFYLYKQLYDAETGQPIEGLYADLDGDGEITNKDRYHHHSPAPDWILGFSTSLRYKKWTLSTSLRANIGGYIFNGMAMNTGAWETMSYNDYQLNNLNRSFLDTRFTKRQFLSDHYLENASFLKMDNLQLSYDFGRIYKTIGLHASAMVQNVFTVTKYKGVDPETANGVDTSVYPRPRTYSITIGLNF	not soluble
APAAVDWRARGAVTAVKDQGQCGSCWAFSAIGNVECQWFLAGHPLTNLSEQMLVSCDKTDSGCSGGLMNNAFEWIVQENNGAVYTEDSYPYASGEGISPPCTTSGHTVGATITGHVELPQDEAQIAAWLAVNGPVAVAVDASSWMTYTGGVMTSCVSEALDHGVLLVGYNDSAAVPYWIIKNSWTTQWGEEGYIRIAKGSNQCLVKEEASSAVVG	soluble
MANKLRNYTINFGPQHPAAHGVLRMILELDGEQIVRADPHIGLLHRGTEKLAETKTYLQALPYMDRLDYVSMMVNEQAYCLAVEKLVGIDVPIRAQYIRVMFAEVTRILNHLMGIGSHAFDIGAMTAILYAFRDREELMDLYEAVSGARMHAAYFRPGGVYRDLPDFMPKYEGSKFRNAKVLKQLNESREGTMLDFIDAFCERFPKNIDTLETLLTDNRIWKQRTVGIGVVSPERAMQKGFTGVMLRGSGVEWDVRKTQPYEVYDKMDFDIPVGVNGDCYDRYLCRMEEMRQSVRIIKQCSEWLRVNPGPVITTNHKFAPPKRTEMKTGMEDLIHHFKLFTEGMHVPEGETYTAVEHPKGEFGVYIISDGANKPYRLKIRAPGFAHLQGMDEMAKGHMLADVVAIIGTQDIVFGEVDR	not soluble
MGSDKIHHHHHHMMKAQFTLTPSESKRLIAKGVKALPILRKALQNHTIILAGGTTNGFLVEELLNETLAEKTRYTVGLIADGKTGESKEEQRIPPFIIAKGKALDRSLHWKDFLPQLEPGDVFIKGGNALDSTGLAAVLVSNSMAGTIGAALGPLYARGVRLVVPIGLEKLIPDVREAVEFMASAPADTALGAKTGLVPMLGATVVTEITALETLYQVTAKCIGAGGVAGSEGAVTLVIEGEAAEVESALSLIQSCKGEPPVR	not soluble
TNADYPALYLANFLLGTSETSRLWHRVRETEGLSYNVRSNLSVSSYEPSANWTIYAIYAPQNRARLEKAISEELARALKDGFTDQEVRDGVVALLNYRNLARAQDDVLADTWVNYMQTGRSFQWSADMDRKLEALTPDQVNAALRKYLKPDAFSTAVAGDFTKKSAP	not soluble
MGSDKIHHHHHHMINAEPIISKMKNQKINYDKVLKKLIGQWEREAIRPKILLHSCCAPCSTYTLEFLTQYADIAIYFANSNIHPKNEYLRRAKVQEQFVEDFNRKTGANVKYIEAPYEPHKFVKMVKDKELADEKEGGLRCTACFEMRLDIVAKAAVEHGYDYFGSAITLSPKKNAQLINELGMDVQKIYDVNYLPSDFKKSKGYERSIEMCNDYNIFRQCYCGCVFAAMQQGIDFKTVNKEAKAFLEQYPD	not soluble
ENHEKEWRFNSRITLVRSPIMLGQQTSHGWRDLIFDVSGGGATPAKHVMQYTGVSYPLNPSMAPTATPEQISGVRLFSDGISPVREGVRL	not soluble
ATAVNGAPRDAALWSSHEQMLAQPLKDSDAEVYDIIKKESNRQRVGLELIASENFASRAVLEALGSCLNNKYSEGYPGQRYYGGTEHIDELETLCQKRALQAYGLDPQCWGVNVQPYSGSPANFAVYTALVEPHGRIMGLDLPDGGHLTHGFMTDKKKISATSIFFESMAYKVNPDTGYIDYDRLEENARLFHPKLIIAGTSCYSRNLDYGRLRKIADENGAYLMADMAHISGLVVAGVVPSPFEHCHVVTTTTHKTLRGCRAGMIFYRRGVRSVDPKTGKEILYNLESLINSAVFPGLQGGPHNHAIAGVAVALKQAMTPEFKEYQRQVVANCRALSAALVELGYKIVTGGSDNHLILVDLRSKGTDGGRAEKVLEACSIACNKNTCPGDKSALRPSGLRLGTPALTSRGLLEKDFQKVAHFIHRGIELTVQIQDDTGPRATLKEFKEKLAGDEKHQRAVRALRQEVESFAALFPLPGLPGF	soluble
GMDDLTNLAARLRLLEDREEIRELIARYGPLADSGDAEALSELWVEDGEYAVVGFATAKGRAAIAALIDGQTHRALMADGCAHFLGPATVTVEGDTATARCHSVVFRCVSGTFGSHRVSANRWTFRRTPAGWRAVRRENALLDGSAAARALLQFR	soluble
MGSDKIHHHHHHMKPALKSTPALRITLVCNTAWAIYTYRQGLIRMLVGRGVDVTVLAPRDRTFELLVAMGCRCIELPVASKGTSPRDDLRTLYALYRQYRSIRPHVVFHYTIKPNIYGSIAARLAGVQSVAVTTGLGYVFIQQSRAAQVAKKLYRFAFRFPREIWFLNRDDQAAFVEQNLLVHPERARLLHGEGVDLEQFAFTPLPERADYRFVLIGRLLWDKGVGEYVEAARRLRERYPHARFQLLGPVGVDNPSAITREEVAAWEREGIIEYLGEAHDVRPFIAEADCVVLPSYREGVPRTLMEASAMGRPIVTTDVPGCREVVADGVNGLLCEARNAASLAATLARMLDMSGAERRALAERGRKKVAEEFDERVVVEMYKDLVQKMTGVLL	not soluble
MGELIYGEVKKQTKDGFIIDLGDNAEAYLAREEMIAKEILRPKQRMNAILYSVNREGRGAQLLLSRALEHHHHHH	not soluble
MSLNIAMTGATGYIGKHLSNYLTEKGGHRIIPLGRAMFREGMSGLLVQTLTHCDVIINLAGAPINQRWTPEHKQELFNSRITVTHRIIRALNAVKTKPKLMISASAVGYYPSLVESDEYTQTRGDGFLSDLCYAWEKEAKRCPQPTRLVITRFGVVLSPDGGAMQQMLRPLRATKVAAVIGPGTQPFPWIDIRDLCCAMAFFIENEELRGVFNLVAPQAVSQSTFTRAMGKAYHAWTTLIVPQAVFRLFYGEAASFLTAGQRVRPTRLLEAGFHFSVPTIEKLFEGEGHHHHHH	soluble
STRFPGVAIYLVEPRMGRSRRAFLTGLARSKGFRVLDACSSEATHVVMEETSAEEAVSWQERRMAAAPPGCTPPALLDISWLTESLGAGQPVPVECRHRLEVAGPRKGPLSPAWMPAYAC	soluble
MSLRVFLTGATGFVGSHVLKELLAAGHQVTGLTRSDAGGRWLVQAGASVHRGTLEDAGSLARGAEQADAVIHTAFDHVFSRYLENCAKDARVISAMAEVLKGSNRPLIITSATGIGAPGAGLPAVEEVVDWAHALPRIASERAGREAADKGVSVAVVRLPQVHDTEKQGLISPLIDIGRAKGVSAYVGDGSNHWSAVHIDDAARLYRLALEHHEAGARYHAVAEEGVSMRQIAETIGAGLGVPVLALQADEVVGHFGWLAPFMAMDMRASSAATRRRLNWTPTGPDLLTDLKAMDYRKLRTASEGHHHHHH	soluble
MKLIVKVFPEITIKSPPVRKKFIRQLGKNIRTVLRELDADIVVGGVWDNLEVETRLTDPKVLQGIRDRLSCMPGIANFLQVAEYPLGDMDDVVAKCKLHYADLLPGTMFSVRCKRAGRHDFSSMDVEKYVGSQLRMQCGAAGIELKKPDLVVRMEIRDQRLFVVHDQHKGMGGYPLGALEQTLVLMSGGFDSTVAAYQIMRRGLMAHFCFFNLGGRAHELGVMEVAHFIWKKYGSSQRVLFVSVPFEEVLGEILQKVDNSHMGVVLKRMMLRAASAVADRLEIDVLVTGEAISQVASQTLPNLSLIDAATDKLVLRPLVATHKQDIVDLATEIGTADFARHMPEYCGVISVNPKTNAKRNRVEYEEQQFDMAILEQALERAKLVSIDRVIDDLSRNIDIEEVSQALAGQVIIDIRHPDAQEDQPLQVPGVEIQTLPFYALNSRFKALDDTRQYLLYCDKGVMSRLHAHHLLSEGHANVRVYRPS	not soluble
